Test results from patent US20220073643A1 (NANJING GENSCRIPT BIOTECH, published 2022).

Assays:
[1] = target: T1, human Claudin18.2 (human); test: cell ELISA, Claudin18.2-expressing HEK293T cells
T1 construct: also called CLDN18.2
Summary of the method: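 Claudin18.2-expressing HEK293T stable cells (1.5×10⁶ cells/ml in 5% skim milk/PBS blocking buffer) were incubated 1 h at room temperature in plates pre-blocked overnight at 4° C. EC₅₀ was derived by four-parameter curve fit.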

[2] = target: T1, human Claudin18.2; test: FACS, Claudin18.2-HEK293 cells
Description: The binding of chimeric antibodies to Claudin18.2 expressed on HEK293 cells was determine by FACS analysis. Briefly, HEK293 cells expressing human Claudin18.2 as prepared in the foregoing Example were harvested and incubated with anti-Claudin18.2 mAbs at 4° C. for 40 min, followed by fluorophore (iFluor 647)-labeled goat […] IgG (H+L) secondary antibodies at 4° C. for 0.5 hour. The samples were then analyzed by flow cytometry.
After initial screening of cell binding with transfected supernatants, the binding pattern of chimeric and up to 3 humanized antibodies on Claudin18.2 expressed on HEK293 cells were plotted with antibody in 3× serial dilutions, starting concentration of 45 μg/ml, following the protocol described in Example 3.

Binder	EC50 [1] [nM]	EC50 [2] [µg/mL]	Span [2]
370E2B12C3 (antibody, V domains shown, mouse hybridoma mAb) VH: QVQLKESGPGLVAPSQSLSITCTVSGFSLTTYGVHWVRQPPGKGLEWLGVIWAGGSTNYNSALMSRVSINKDNSKSQVFIKMNSLQADDTALYYCARAAYYGNGLDYWGQGTTLTVSS VL: DIVMTQSPSSLTVTAGEKVTMSCKSSQTLLNSGNQKNYLTWYQQKPGQPPKLLIYWASTGESGVPDRFTGSGSGTDFTLTISSVQAEDLAVYFCQNAYFYPFTFGGGTKLEIK	0.522	–	–
430A11H9 (antibody, V domains shown, mouse hybridoma mAb) VH: DVKLVESGGGLVKPGGSLKLSCAASGFTFSSYTMSWVRQTPEKRLEWVATISSGGSYTYYPDSVKGRFTISRDNAKNTLYLQMSSLKSEDTAMYYCTRDPGYFAYWGQGTLVTVSA VL: DIQMTQSPASLSASVGETVTITCRASENIYSYLAWYQQKQGKSPQLLVYNAKTLAEGVPSRFSGSGSGTQFSLKINSLQPEDFGSYYCQHHYGTPYTFGGGTKLEIK	~1.7	–	–
420H3H9 (antibody, V domains shown, mouse hybridoma mAb) VH: DVQLVESGGGLVQPGGSRKLSCAASGFTFSSFGMHWVRQAPEKGLEWVAYISSGSSTIYYAHSVKGRFTISRDNPKNTLFLQMTSLGSEDTAMYYCARFYYGNSFAYWGQGTLVTVSA VL: DIVMTQSPSSLTVTAGEKVTLSCKSSQSLLNSGNQKNYLTWYQQKPGQPPKMLIYWASTRESGVPDRFTGSGSGTDFTLTISSVQAEDLADYYCQNAYTYPLTFGAGTRLELK	20.7	–	–
429H6C5 (antibody, V domains shown, mouse hybridoma mAb) VH: DVQLVESGGGLVQPGGSRKLSCAASGFTFSSFGMHWVRQAPEKELEWVAYISSGSSTIYYAHTVKGRFTISRDNPKNTLFLRMTSLGSEDTAMYYCVRFYYGNSFVNWGQGTLVTVSA VL: DIVMTQSPSSLTATAGEKVTMSCKSSQSLLNSGNQKNYLTWYQQKPGQPPKMLIYWASTRESGVPDRFAGSGSGTDFTLTISSVQAEDLAVYYCQNAYIYPLTFGAGTRLELK	13.2	–	–
humanized 207F8G5-VH1.1 + VL1.1 (antibody, human IgG1, kappa, V domains shown, humanized, human IgG1/kappa constant regions) VH: QVQLVQSGAEVKKPGASVKVSCKASGFTFTSYNIHWVKQAPGQGLEWMGYISPGNGGSNYNLKFKDRVTMTSDTSISTAYMELSRLRSDDTAVYFCATGRGFAYWGQGTLVTVSS VL: DIVMTQSPDSLAVSPGERATMSCKSSQSLFNSGNQKNYLIWYQQKPGQPPKLLIYRASTRDSGVPDRFSGSGSGTDFTLTISSLQAEDVAVYYCQNDYSYPLTFGGGTKLEIKR	–	0.168	14000
humanized 232C5E3-VL1.1 + VH1 (antibody, human IgG1, kappa, V domains shown, humanized, human IgG1/kappa constant regions) VH: QVQLVQSGAEVKKPGASVKVSCKASGYTFTSHNIHWVRQAPGQRLEWMGYIYPGNGGTNYNQKFKARVTITRDTSASTAYMELSSLRSEDTAVYYCARDYYGNSFAYWGQGTLVTVSS VL: DIVMTQSPDSLAVSLGERATMSCKSSQSLLNSGNQKNYLTWYQQKPGQPPKLLIYWASTRESGVPDRFSGSGSGTDFTLTISSLQAEDVAVYYCQNGYRFPFTFGQGTKLEIKR	–	0.304	58000
humanized 246B5F2-VH1.1 + VL1 (antibody, human IgG1, kappa, V domains shown, humanized, human IgG1/kappa constant regions) VH: EVQLLESGGGLVQPGGSLRLSCAASEFTFSNYAMSWVRQAPGKRLEWVATISSGRSSTYYPDSVKGRFTISRDNSKNTLYLQMNSLRAEDTAVYYCAGLGRGNAMEYWGQGTLVTVSS VL: DIVMTQSPDSLAVSLGERATINCKSSQSLLNSGNQKNYLTWYQQKPGQPPKLLIYWASTRESGVPDRFSGSGSGTDFTLTISSLQAEDVAVYYCQNAYSYPFTFGGGTKLEIKR	–	0.104	10900
humanized 207F8G5-VH1.7 + VL1 (antibody, human IgG1, kappa, V domains shown, humanized, human IgG1/kappa constant regions) VH: QVQLVQSGAEVKKPGASVKVSCKASGFTFTSYNIHWVKQAPGQGLEWMGYISPGNGGSNYNLKFKDRVTLTSDTSISTAYMELSRLRSDDTAVYYCATGRGFAYWGQGTLVTVSS VL: DIVMTQSPDSLAVSLGERATINCKSSQSLFNSGNQKNYLIWYQQKPGQPPKLLIYRASTRDSGVPDRFSGSGSGTDFTLTISSLQAEDVAVYYCQNDYSYPLTFGGGTKLEIKR	–	0.145	13800
humanized 207F8G5-VH1.3 + VL1.1 (antibody, human IgG1, kappa, V domains shown, humanized, human IgG1/kappa constant regions) VH: QVQLVQSGAEVKKPGASVKVSCKASGFTFTSYNIHWVRQAPGQGLEWIGYISPGNGGSNYNLKFKDRATMTSDTSISTAYMELSRLRSDDTAVYFCATGRGFAYWGQGTLVTVSS VL: DIVMTQSPDSLAVSPGERATMSCKSSQSLFNSGNQKNYLIWYQQKPGQPPKLLIYRASTRDSGVPDRFSGSGSGTDFTLTISSLQAEDVAVYYCQNDYSYPLTFGGGTKLEIKR	–	0.143	13800

The remaining lines, values ahead:

EC50 [1] [nM]	EC50 [2] [µg/mL]	Span [2]	Binder
–	0.826	4650	humanized 370E2B12C3-VH3 + VL1 (antibody, human IgG1, kappa, V domains shown, humanized, human IgG1/kappa constant regions) VH: QVQLVESGGGVVQPGRSLRLSCAASGFSLTTYGVHWVRQAPGKGLEWVAVIWAGGSTNYNSALMSRFTISRDNSKNTLYLQMNSLRAEDTAVYYCARAAYYGNGLDYWGQGTMVTVSS VL: DIVMTQSPDSLAVSLGERATINCKSSQTLLNSGNQKNYLTWYQQKPGQPPKLLIYWASTGESGVPDRFSGSGSGTDFTLTISSLQAEDVAVYYCQNAYFYPFTFGGGTKLEIKR
–	0.224	54900	humanized 232C5E3-VL1.1 + VH1.1 (antibody, human IgG1, kappa, V domains shown, humanized, human IgG1/kappa constant regions) VH: QVQLVQSGAEVKKPGASVKVSCKASGYTFTSHNIHWVRQAPGQRLEWIGYIYPGNGGTNYNQKFKARATITADTSASTAYMELSSLRSEDTAVYFCARDYYGNSFAYWGQGTLVTVSS VL: DIVMTQSPDSLAVSLGERATMSCKSSQSLLNSGNQKNYLTWYQQKPGQPPKLLIYWASTRESGVPDRFSGSGSGTDFTLTISSLQAEDVAVYYCQNGYRFPFTFGQGTKLEIKR
–	0.16	14200	humanized 246B5F2-VH1 + VL1 (antibody, human IgG1, kappa, V domains shown, humanized, human IgG1/kappa constant regions) VH: EVQLLESGGGLVQPGGSLRLSCAASEFTFSNYAMSWVRQAPGKGLEWVSTISSGRSSTYYPDSVKGRFTISRDNSKNTLYLQMNSLRAEDTAVYYCAKLGRGNAMEYWGQGTLVTVSS VL: DIVMTQSPDSLAVSLGERATINCKSSQSLLNSGNQKNYLTWYQQKPGQPPKLLIYWASTRESGVPDRFSGSGSGTDFTLTISSLQAEDVAVYYCQNAYSYPFTFGGGTKLEIKR
–	0.261	15700	humanized 237D2A4-VH1.2 + VL1 (antibody, human IgG1, kappa, V domains shown, humanized, human IgG1/kappa constant regions) VH: QVQLQESGPGLVKPSETLSLTCTVSGFSLTSYGVSWIRQPPGKGLEWIGVIWGDGSTNYHSTLISRVTISKDTSKNQVFLKLSSVTAADTAVYYCAKAGRGNALDYWGQGTLVTVSS VL: DIVMTQSPDSLAVSLGERATINCKSSQSLLNSGNQKNYLTWYQQKPGQPPKLLIYWASTRESGVPDRFSGSGSGTDFTLTISSLQAEDVAVYYCQNDYSFPLTFGGGTKLEIKR
–	0.283	14700	humanized 246B5F2-VH1.1 + VL1.1 (antibody, human IgG1, kappa, V domains shown, humanized, human IgG1/kappa constant regions) VH: EVQLLESGGGLVQPGGSLRLSCAASEFTFSNYAMSWVRQAPGKRLEWVATISSGRSSTYYPDSVKGRFTISRDNSKNTLYLQMNSLRAEDTAVYYCAGLGRGNAMEYWGQGTLVTVSS VL: DIVMTQSPDSLAVSLGERATISCKSSQSLLNSGNQKNYLTWYQQKPGQPPKLLIYWASTRESGVPDRFTGSGSGTDFTLTISSLQAEDVAVYYCQNAYSYPFTFGGGTKLEIKR
–	0.212	57900	humanized 232C5E3-VL1.1 + VH1.2 (antibody, human IgG1, kappa, V domains shown, humanized, human IgG1/kappa constant regions) VH: QVQLVQSGAEVKKPGASVKVSCKASGYTFTSHNIHWIKQAPGQRLEWMGYIYPGNGGTNYNQKFKARVTITADTSASTAYMELSSLRSEDTAVYFCARDYYGNSFAYWGQGTLVTVSS VL: DIVMTQSPDSLAVSLGERATMSCKSSQSLLNSGNQKNYLTWYQQKPGQPPKLLIYWASTRESGVPDRFSGSGSGTDFTLTISSLQAEDVAVYYCQNGYRFPFTFGQGTKLEIKR
